This assay addresses heat shock protein 90 (HSP90) (UniProt P07900). In words: co-immunoprecipitation (anti-HA) with immunoblot quantification (ImageJ). Conditions: HEK293T cells; endogenous HSP90; n = 3; parent: est. 1.0; read off a plot.

For the substance “BRAF^V600E (from UniProt P15056) R509H; 621APE-AAE”, the response (HSP90/HA-BRAF normalized to V600E) came out at 12.

The record behind these values is PMC11804575.
